Data reported in publication PMC7057333.
Read-outs that look alike come from different tables or passages of the source.

How the values were obtained:
[1] = molecular target: LSD1_(172-833), lysine-specific demethylase 1 (human) (UniProt O60341); assay: enzyme inhibition kinetics (HRP-coupled fluorescence demethylation assay); 25 nM LSD1, substrate H3K4me1_(1-21), 25 mM Tris, 50 mM NaCl, 0.1 mg/mL BSA, pH 8, 1% DMSO; Ki by global fit of competitive inhibition for 1, 11, 24, 28, 31, 33, 34, else from IC50 by Cheng-Prusoff (substrate 20 μM)
[2] = molecular target: LSD1_(172-833), lysine-specific demethylase 1 (human) (UniProt O60341)
[3] = molecular target: LSD1_(172-833), lysine-specific demethylase 1 (human) (UniProt O60341); remark: listed apart in the source

Substance	Ki [1]	% inhibition of LSD1 demethylase activity at 100 μM peptide [2]	% inhibition of LSD1 demethylase activity at 100 μM peptide [3]	IC50 of inhibition of LSD1 demethylase activity [3]
lactam 27 (Lys3-Glu6 lactam-bridged H3_(1-11) K4M) (peptide)	31 µM	65%	–	–
lactam 28 (Glu3-Lys6 lactam-bridged H3_(1-11) K4M) (peptide)	4 µM	98%	–	–
lactam 29 (A1P-substituted lactam 27) (peptide)	7 µM	90%	–	–
lactam 30 (A1P-substituted lactam 28) (peptide)	22 µM	75%	–	–
lactam 32 (D-Glu3-Lys6 lactam-bridged H3_(1-11) K4M) (peptide)	> 100 µM	< 20%	–	–
macrocycle 31 (D-Lys3-Glu6 lactam-bridged H3_(1-11) K4M) (peptide)	2.3 µM	100%	–	–
peptide 20, linear precursor of 21 (allylglycine at positions 3 and 6 of H3_(1-11) K4M)	–	–	95%	10 µM
